In patent publication US20260201008A1, “SECRETIN-DERIVED GLP1R SELECTIVE AGONISTS” (GUBRA A/S, priority 2023, published 2026):
Numbered stars: 1 amine (or outer) side, 2 acyl side, 3 side chain; on linkers, the order of the positions; unused ones are H or OH. Square brackets hold non-standard residues; d marks the D form. Side chains are listed from the residue outwards. Ends that are not written are not given here. * marks the point of attachment. C20 diacid = O=C(O)CCCCCCCCCCCCCCCCCCC(=O)*; γGlu = O=C(O)[C@H](CCC(=O)[*:2])N[*:1]; AEEA = NCCOCCOCC(=O)O; Aib = CC(C)(N)C(=O)O

B1: SEQ ID NO: 106 (peptide)
peptide: H[Aib]EGTFTSD[Aib]SYLLEGAALQRFIQWLV-NH2
modifications: N-terminus assumed
SMILES: CC[C@H](C)[C@H](NC(=O)[C@H](Cc1ccccc1)NC(=O)[C@H](CCCNC(=N)N)NC(=O)[C@H](CCC(N)=O)NC(=O)[C@H](CC(C)C)NC(=O)[C@H](C)NC(=O)[C@H](C)NC(=O)CNC(=O)[C@H](CCC(=O)O)NC(=O)[C@H](CC(C)C)NC(=O)[C@H](CC(C)C)NC(=O)[C@H](Cc1ccc(O)cc1)NC(=O)[C@H](CO)NC(=O)C(C)(C)NC(=O)[C@H](CC(=O)O)NC(=O)[C@H](CO)NC(=O)[C@@H](NC(=O)[C@H](Cc1ccccc1)NC(=O)[C@@H](NC(=O)CNC(=O)[C@H](CCC(=O)O)NC(=O)C(C)(C)NC(=O)[C@@H](N)Cc1c[nH]cn1)[C@@H](C)O)[C@@H](C)O)C(=O)N[C@@H](CCC(N)=O)C(=O)N[C@@H](Cc1c[nH]c2ccccc12)C(=O)N[C@@H](CC(C)C)C(=O)N[C@H](C(N)=O)C(C)C
B2: SEQ ID NO: 107 (peptide)
peptide: H[Aib]EGTFTSD[Aib]S[Aib]LLEGAALQRFIQWLV-NH2
modifications: N-terminus assumed
SMILES: CC[C@H](C)[C@H](NC(=O)[C@H](Cc1ccccc1)NC(=O)[C@H](CCCNC(=N)N)NC(=O)[C@H](CCC(N)=O)NC(=O)[C@H](CC(C)C)NC(=O)[C@H](C)NC(=O)[C@H](C)NC(=O)CNC(=O)[C@H](CCC(=O)O)NC(=O)[C@H](CC(C)C)NC(=O)[C@H](CC(C)C)NC(=O)C(C)(C)NC(=O)[C@H](CO)NC(=O)C(C)(C)NC(=O)[C@H](CC(=O)O)NC(=O)[C@H](CO)NC(=O)[C@@H](NC(=O)[C@H](Cc1ccccc1)NC(=O)[C@@H](NC(=O)CNC(=O)[C@H](CCC(=O)O)NC(=O)C(C)(C)NC(=O)[C@@H](N)Cc1c[nH]cn1)[C@@H](C)O)[C@@H](C)O)C(=O)N[C@@H](CCC(N)=O)C(=O)N[C@@H](Cc1c[nH]c2ccccc12)C(=O)N[C@@H](CC(C)C)C(=O)N[C@H](C(N)=O)C(C)C
B3: SEQ ID NO: 105 (peptide)
peptide: H[Aib]EGTFTSD[Aib]SGLLEGAALQRFIQWLV-NH2
modifications: N-terminus assumed
SMILES: CC[C@H](C)[C@H](NC(=O)[C@H](Cc1ccccc1)NC(=O)[C@H](CCCNC(=N)N)NC(=O)[C@H](CCC(N)=O)NC(=O)[C@H](CC(C)C)NC(=O)[C@H](C)NC(=O)[C@H](C)NC(=O)CNC(=O)[C@H](CCC(=O)O)NC(=O)[C@H](CC(C)C)NC(=O)[C@H](CC(C)C)NC(=O)CNC(=O)[C@H](CO)NC(=O)C(C)(C)NC(=O)[C@H](CC(=O)O)NC(=O)[C@H](CO)NC(=O)[C@@H](NC(=O)[C@H](Cc1ccccc1)NC(=O)[C@@H](NC(=O)CNC(=O)[C@H](CCC(=O)O)NC(=O)C(C)(C)NC(=O)[C@@H](N)Cc1c[nH]cn1)[C@@H](C)O)[C@@H](C)O)C(=O)N[C@@H](CCC(N)=O)C(=O)N[C@@H](Cc1c[nH]c2ccccc12)C(=O)N[C@@H](CC(C)C)C(=O)N[C@H](C(N)=O)C(C)C
B4: SEQ ID NO: 104 (peptide)
peptide: H[Aib]EGTFTSD[Aib]SRLLEGAALQRFIQWLV-NH2
modifications: N-terminus assumed
SMILES: CC[C@H](C)[C@H](NC(=O)[C@H](Cc1ccccc1)NC(=O)[C@H](CCCNC(=N)N)NC(=O)[C@H](CCC(N)=O)NC(=O)[C@H](CC(C)C)NC(=O)[C@H](C)NC(=O)[C@H](C)NC(=O)CNC(=O)[C@H](CCC(=O)O)NC(=O)[C@H](CC(C)C)NC(=O)[C@H](CC(C)C)NC(=O)[C@H](CCCNC(=N)N)NC(=O)[C@H](CO)NC(=O)C(C)(C)NC(=O)[C@H](CC(=O)O)NC(=O)[C@H](CO)NC(=O)[C@@H](NC(=O)[C@H](Cc1ccccc1)NC(=O)[C@@H](NC(=O)CNC(=O)[C@H](CCC(=O)O)NC(=O)C(C)(C)NC(=O)[C@@H](N)Cc1c[nH]cn1)[C@@H](C)O)[C@@H](C)O)C(=O)N[C@@H](CCC(N)=O)C(=O)N[C@@H](Cc1c[nH]c2ccccc12)C(=O)N[C@@H](CC(C)C)C(=O)N[C@H](C(N)=O)C(C)C
B5: SEQ ID NO: 108 (peptide)
peptide: H[Aib]EGTFTSD[Aib]SWLLEGAALQRFIQWLV-NH2
modifications: N-terminus assumed
SMILES: CC[C@H](C)[C@H](NC(=O)[C@H](Cc1ccccc1)NC(=O)[C@H](CCCNC(=N)N)NC(=O)[C@H](CCC(N)=O)NC(=O)[C@H](CC(C)C)NC(=O)[C@H](C)NC(=O)[C@H](C)NC(=O)CNC(=O)[C@H](CCC(=O)O)NC(=O)[C@H](CC(C)C)NC(=O)[C@H](CC(C)C)NC(=O)[C@H](Cc1c[nH]c2ccccc12)NC(=O)[C@H](CO)NC(=O)C(C)(C)NC(=O)[C@H](CC(=O)O)NC(=O)[C@H](CO)NC(=O)[C@@H](NC(=O)[C@H](Cc1ccccc1)NC(=O)[C@@H](NC(=O)CNC(=O)[C@H](CCC(=O)O)NC(=O)C(C)(C)NC(=O)[C@@H](N)Cc1c[nH]cn1)[C@@H](C)O)[C@@H](C)O)C(=O)N[C@@H](CCC(N)=O)C(=O)N[C@@H](Cc1c[nH]c2ccccc12)C(=O)N[C@@H](CC(C)C)C(=O)N[C@H](C(N)=O)C(C)C

Experiments:
[1] = biological target: human secretin receptor (hSCTR) (human, UniProt P47872 23-440); test: cell-based or functional assay
Chain of human secretin receptor (hSCTR) (P47872 23-440): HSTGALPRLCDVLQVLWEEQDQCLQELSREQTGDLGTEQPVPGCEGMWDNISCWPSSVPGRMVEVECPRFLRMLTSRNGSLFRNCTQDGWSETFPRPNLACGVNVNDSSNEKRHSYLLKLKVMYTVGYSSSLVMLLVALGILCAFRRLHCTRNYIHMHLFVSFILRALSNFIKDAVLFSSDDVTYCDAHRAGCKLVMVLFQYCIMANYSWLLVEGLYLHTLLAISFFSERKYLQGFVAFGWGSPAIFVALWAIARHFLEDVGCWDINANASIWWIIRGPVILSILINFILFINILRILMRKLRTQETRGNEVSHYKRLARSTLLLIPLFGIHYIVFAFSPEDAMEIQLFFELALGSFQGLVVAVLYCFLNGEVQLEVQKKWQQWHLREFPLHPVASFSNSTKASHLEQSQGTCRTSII

[2] = biological target: human GLP-1 receptor (hGLP1R) (human, UniProt P43220 24-463); test: cell-based or functional assay

Row | Binder | pEC50 hSCTR [1] | pEC50 hGLPR1 [2]
1 | B1 | 5.8 -log M | 10.8 -log M
2 | B2 | 6 -log M | 9.8 -log M
3 | H[Aib]EGTFTSDVSTLK([AEEA-AEEA-γGlu-C20 diacid])ELAAAQRFLEHLV-NH2 (also: K14 lipidated with C20DA[γE][OEG][OEG]- or C18DA[γE][OEG][OEG]-) [SEQ ID NO: 11] | 6.2 -log M | 10.3 -log M
4 | B3 | 5.8 -log M | 10 -log M
5 | H[Aib]EGTFTSDVSVLK([AEEA-AEEA-γGlu-C20 diacid])ETAA[Aib]QRFLEHLV-NH2 (also: K14 lipid also given as C18DA[γE][OEG][OEG]-) [SEQ ID NO: 101] | 6 -log M | 9.7 -log M
6 | H[Aib]EGTFTSDVSTLK([AEEA-AEEA-γGlu-C20 diacid])EEAATQRFLEHLV-NH2 (also: K14 lipid also given as C18DA[γE][OEG][OEG]-) [SEQ ID NO: 102] | 7.1 -log M | 11 -log M
7 | H[Aib]EGTFTSD[Aib]SYLK([AEEA-AEEA-γGlu-C20 diacid])EEA[Aib]LQRFLEHLV-NH2 (also: K14 lipid also given as C18DA[γE][OEG][OEG]-) [SEQ ID NO: 103] | 5 -log M | 11.1 -log M
8 | B4 | 6.5 -log M | 9.9 -log M
9 | H[Aib]EGTFTSDVSTLK([AEEA-AEEA-γGlu-C20 diacid])EFAAQQRFLEHLV-NH2 (also: K14 lipid also given as C18DA[γE][OEG][OEG]-) [SEQ ID NO: 100] | 6.1 -log M | 9.9 -log M
10 | B5 | 5.9 -log M | 10.1 -log M
